Data taken from publication doi:10.1101/2022.09.27.509796 (bioRxiv, 2022).

Target: T1, ΔN100 y-mtRNAP (yeast mitochondrial RNA polymerase, RPO41) (Saccharomyces cerevisiae, UniProt P13433 101-1351)
T1 sequence (looked up): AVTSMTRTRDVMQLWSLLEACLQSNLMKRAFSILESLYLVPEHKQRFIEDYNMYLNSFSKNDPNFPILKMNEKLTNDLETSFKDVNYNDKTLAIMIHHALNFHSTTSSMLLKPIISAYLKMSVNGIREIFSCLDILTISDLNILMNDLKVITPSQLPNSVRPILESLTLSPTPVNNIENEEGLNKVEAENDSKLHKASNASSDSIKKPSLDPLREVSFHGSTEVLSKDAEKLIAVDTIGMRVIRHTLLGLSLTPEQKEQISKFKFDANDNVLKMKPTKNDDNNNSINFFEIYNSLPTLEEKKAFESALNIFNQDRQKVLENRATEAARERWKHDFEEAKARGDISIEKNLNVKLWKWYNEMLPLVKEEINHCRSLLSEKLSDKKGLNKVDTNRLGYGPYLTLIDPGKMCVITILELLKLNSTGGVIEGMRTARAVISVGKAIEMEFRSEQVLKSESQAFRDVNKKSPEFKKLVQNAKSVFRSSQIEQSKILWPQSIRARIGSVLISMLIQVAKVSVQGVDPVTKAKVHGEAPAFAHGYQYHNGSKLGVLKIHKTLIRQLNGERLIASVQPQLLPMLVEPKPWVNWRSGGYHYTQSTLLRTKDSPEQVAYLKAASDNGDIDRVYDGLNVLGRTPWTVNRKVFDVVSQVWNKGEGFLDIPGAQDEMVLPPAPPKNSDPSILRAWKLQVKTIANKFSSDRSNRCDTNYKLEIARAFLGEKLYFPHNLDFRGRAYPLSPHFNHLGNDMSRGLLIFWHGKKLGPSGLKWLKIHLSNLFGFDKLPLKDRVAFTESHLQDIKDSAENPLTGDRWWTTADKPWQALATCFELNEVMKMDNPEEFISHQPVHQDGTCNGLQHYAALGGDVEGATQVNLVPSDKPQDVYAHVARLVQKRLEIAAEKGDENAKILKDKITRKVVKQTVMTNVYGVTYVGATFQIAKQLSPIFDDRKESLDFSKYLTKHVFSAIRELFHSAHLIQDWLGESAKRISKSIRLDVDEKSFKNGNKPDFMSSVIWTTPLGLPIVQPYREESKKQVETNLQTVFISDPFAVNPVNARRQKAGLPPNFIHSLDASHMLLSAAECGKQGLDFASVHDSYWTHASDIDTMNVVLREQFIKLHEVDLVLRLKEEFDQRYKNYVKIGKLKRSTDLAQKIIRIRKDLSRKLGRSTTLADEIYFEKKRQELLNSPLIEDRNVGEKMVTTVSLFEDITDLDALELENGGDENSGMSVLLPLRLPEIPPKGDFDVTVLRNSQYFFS
Test: cryo-EM structure

B1: MTF1 (yeast mitochondrial transcription factor) (natural protein, Saccharomyces cerevisiae)
chain: SVPIPGIKDISKLKFFYGFKYLWNPTVYNKIFDKLDLTKTYKHPEELKVLDLYPGVGIQSAIFYNKYCPRQYSLLEKRSSLYKFLNAKFEGSPLQILKRDPYDWSTYSNLIDEERIFVPEVQSSDHINDKFLTVANVTGEGSEGLIMQWLSCIGNKNWLYRFGKVKMLLWMPSTTARKLLARPGMHSRSKCSVVREAFTDTKLIAISDANELKGFDSQCIEEWDPILFSAAEIWPTKGKPIALVEMDPIDFDFDVDNWDYVTRHLMILKRTPLNTVMDSLGHGGQQYFNSRITDKDLLKKCPIDLTNDEFIYLTKLFMEWPFKPDILMDFVDMYQTEHSG
binding result: binds
